Experimental data taken from patent US9593156B2 (priority 2012, dated 2017).
Like-named read-outs stand apart in the source and are kept apart here. Ends that are not written are not given here.

Tests used:
[1] = target: insulin receptor (Homo sapiens, UniProt P06213); assay: Insulin receptor competition binding assay (scintillation proximity); set-up: expressed in transfected cells; plasma membrane fragments
[2] = target: T1, type B insulin receptor (IR-B) (Homo sapiens, UniProt P06213); assay: Receptor kinase activity (phosphorylation) assay, type B insulin receptor; format: cell-based; conditions: for % Insulin Activity IR-B: Table 12
T1 construct: expressed in transfected cells; host or cells: HEK293

[3] = target: IGF-1 receptor (Homo sapiens, UniProt P08069); assay: Receptor kinase activity (phosphorylation) assay, IGF-1 receptor; format: cell-based; set-up: expressed in transfected cells; host or cells: HEK293; conditions: for % Insulin Activity IGF-1 R: Table 12
[4] = target: T2, type A insulin receptor (IR-A) (Homo sapiens, UniProt P06213); assay: Receptor kinase activity (phosphorylation) assay, type A insulin receptor; format: cell-based; conditions: for % Insulin Activity IR-A: Table 12
T2 construct: expressed in transfected cells; host or cells: HEK293

Compound | % Insulin Activity IR-B [2] | % Insulin Activity IGF-1 R [3] | % Insulin Activity IR-A [4] | IR-B [2] | IGF-1 R [3] | further results
CC[C@H](C)[C@H](NC(=O)CN)C(=O)N[C@H](C(=O)N[C@@H](CC(=O)O)C(=O)N[C@@H](CCC(=O)O)C(=O)N[C@H]1CSSC[C@@H]2NC(=O)[C@H](CO)NC(=O)[C@H](CCCNC(=N)N)NC(=O)[C@H](Cc3ccccc3)NC(=O)[C@H](CSSC[C@H](NC(=O)[C@H](CC(C)C)NC(=O)[C@@H](NC(=O)[C@H](CCC(=O)O)NC(=O)[C@@H]3CCCN3C(=O)CN)[C@@H](C)O)C(=O)NCC(=O)N[C@@H](C)C(=O)N[C@@H](CCC(=O)O)C(=O)N[C@@H](CC(C)C)C(=O)N[C@@H](C(C)C)C(=O)N[C@@H](CC(=O)O)C(=O)N[C@@H](C)C(=O)N[C@@H](CC(C)C)C(=O)N[C@@H](Cc3ccc(O)cc3)C(=O)N[C@@H](CC(C)C)C(=O)N[C@@H](C(C)C)C(=O)N[C@H](C(=O)NCC(=O)N[C@@H](CC(=O)O)C(=O)N[C@@H](CCCNC(=N)N)C(=O)NCC(=O)N[C@@H](Cc3ccccc3)C(=O)N[C@@H](Cc3ccc(O)cc3)C(=O)N[C@@H](Cc3ccccc3)C(=O)N[C@@H](CC(N)=O)C(=O)N[C@@H](CCCCN)C(=O)N3CCC[C@H]3C(=O)N[C@H](C(N)=O)[C@@H](C)O)CSSC[C@@H](C(=O)N[C@@H](C)C(N)=O)NC(=O)[C@H](Cc3ccc(N)cc3)NC(=O)[C@H](CCSC)NC(=O)[C@H](CCC(=O)O)NC(=O)[C@H](CC(C)C)NC(=O)[C@H](CCCNC(=N)N)NC(=O)[C@H](CCCNC(=N)N)NC(=O)[C@H](CC(C)C)NC(=O)[C@H](CC(=O)O)NC2=O)NC1=O)C(C)C [IGF1 (Y^B16L^B17) (p-NH2—F)^A19 amide] |  |  |  |  |  | % of Insulin Activity ([1]; Table 7): 22%
CC[C@H](C)[C@H](NC(=O)CN)C(=O)N[C@H](C(=O)N[C@@H](CC(=O)O)C(=O)N[C@@H](CCC(=O)O)C(=O)N[C@H]1CSSC[C@@H]2NC(=O)[C@H](CO)NC(=O)[C@H](CCCNC(=N)N)NC(=O)[C@H](Cc3ccccc3)NC(=O)[C@H](CSSC[C@H](NC(=O)[C@H](CC(C)C)NC(=O)[C@@H](NC(=O)[C@H](CCC(=O)O)NC(=O)[C@@H]3CCCN3C(=O)CN)[C@@H](C)O)C(=O)NCC(=O)N[C@@H](C)C(=O)N[C@@H](CCC(=O)O)C(=O)N[C@@H](CC(C)C)C(=O)N[C@@H](C(C)C)C(=O)N[C@@H](CC(=O)O)C(=O)N[C@@H](C)C(=O)N[C@@H](CC(C)C)C(=O)N[C@@H](Cc3ccc(O)cc3)C(=O)N[C@@H](CC(C)C)C(=O)N[C@@H](C(C)C)C(=O)N[C@H](C(=O)NCC(=O)N[C@@H](CC(=O)O)C(=O)N[C@@H](CCCNC(=N)N)C(=O)NCC(=O)N[C@@H](Cc3ccccc3)C(=O)N[C@@H](Cc3ccc(O)cc3)C(=O)N[C@@H](Cc3ccccc3)C(=O)N[C@@H](CC(N)=O)C(=O)N[C@@H](CCCCN)C(=O)N3CCC[C@H]3C(=O)N[C@H](C(N)=O)[C@@H](C)O)CSSC[C@@H](C(=O)N[C@@H](C)C(N)=O)NC(=O)[C@H](Cc3ccc(O)cc3)NC(=O)[C@H](CCSC)NC(=O)[C@H](CCC(=O)O)NC(=O)[C@H](CC(C)C)NC(=O)[C@H](CCCNC(=N)N)NC(=O)[C@H](CCCNC(=N)N)NC(=O)[C@H](CC(C)C)NC(=O)[C@H](CC(=O)O)NC2=O)NC1=O)C(C)C [IGF1 (Y^B16L^B17)] |  |  |  |  |  | % of Insulin Activity ([1]; Table 6): 262%
CC[C@H](C)[C@H](NC(=O)CN)C(=O)N[C@H](C(=O)N[C@@H](CC(=O)O)C(=O)N[C@@H](CCC(=O)O)C(=O)N[C@H]1CSSC[C@@H]2NC(=O)[C@H](CO)NC(=O)[C@H](CCCNC(=N)N)NC(=O)[C@H](Cc3ccccc3)NC(=O)[C@H](CSSC[C@H](NC(=O)[C@H](CC(C)C)NC(=O)[C@H](Cc3c[nH]cn3)NC(=O)[C@H](CCC(=O)O)NC(=O)[C@@H]3CCCN3C(=O)CN)C(=O)NCC(=O)N[C@@H](C)C(=O)N[C@@H](CC(=O)O)C(=O)N[C@@H](CC(C)C)C(=O)N[C@@H](C(C)C)C(=O)N[C@@H](CC(=O)O)C(=O)N[C@@H](C)C(=O)N[C@@H](CC(C)C)C(=O)N[C@@H](Cc3ccc(O)cc3)C(=O)N[C@@H](CC(C)C)C(=O)N[C@@H](C(C)C)C(=O)N[C@H](C(=O)NCC(=O)N[C@@H](CC(=O)O)C(=O)N[C@@H](CCCNC(=N)N)C(=O)NCC(=O)N[C@@H](Cc3ccccc3)C(=O)N[C@@H](Cc3ccc(O)cc3)C(N)=O)CSSC[C@@H](C(=O)N[C@@H](C)C(N)=O)NC(=O)[C@H](Cc3ccc(O)cc3)NC(=O)[C@H](CC[S+](C)[O-])NC(=O)[C@H](CCC(=O)O)NC(=O)[C@H](CC(C)C)NC(=O)[C@H](CCCNC(=N)N)NC(=O)[C@H](CCCNC(=N)N)NC(=O)[C@H](CC(C)C)NC(=O)[C@H](CC(=O)O)NC2=O)NC1=O)C(C)C (some centres unmarked) [IGF-1 A:B(H5D10Y16L17) (S═O) DPI] |  |  |  |  |  | % insulin (in test) ([1]; Table 9, Insulin Receptor): 316.0%
B2, A14-PEG10K di-PEGylated MIU-35 (GPEHLCGAELVDALYLVCGDRGFYGYGSSSRKAPQTGIVDECCFRSCDLK(PEG 10 kDa)RLENYCN; not fully specified (N-terminus); ends and bridges not checked; also: PEG10K at B2) [MIU-69] | 0.5% | <0.1% | 1.0% |  |  | 
B2, B22-PEG10K di-PEGylated MIU-35 (GPEHLCGAELVDALYLVCGDK(PEG 10 kDa)GFYGYGSSSRKAPQTGIVDECCFRSCDLRRLENYCN; not fully specified (N-terminus); ends and bridges not checked; also: PEG10K at B2) [MIU-68] | 0.1% | <0.1% | 0.4% |  |  | 
B2, C8-PEG10K di-PEGylated MIU-35 (GPEHLCGAELVDALYLVCGDRGFYGYGSSSRK(PEG 10 kDa)APQTGIVDECCFRSCDLRRLENYCN; not fully specified (N-terminus); ends and bridges not checked; also: PEG10K at B2) [MIU-67] | 0.1% | <0.1% | 0.2% |  |  | 
B^1(A5H10Y16L17)25-C^1-A^1(H8N18N21) [Ala,B5] |  |  |  | 5.7% | 2.5% | 
B^1(H5,10Y16L17A24)25-C^1-A^1(H8N18,N21) [Ala,B24] |  |  |  | 0.4% | 0.3% | IR-A [4]: 0.1%
B^1(H5,10Y16L17R29)30-C^1des9-12-A^1(H8,N18,21) (GPEHLCGAHLVDALYLVCGDRGFYFNKRTGYGSSSRRGIVDECCHRSCDLRRLENYCN) [MIU-43] |  |  |  |  |  | IR-B ([2]; Table 14): 16.7%; IGF-1 R ([3]; Table 14): 14.2%; IR-A ([4]; Table 14): 97.5%
GE5W-B^1(A5H10Y16L17)25-C^1-A^1(H8N18N21) [GE5W-Ala,B5] |  |  |  | 2.3% | 0.3% | IR-A [4]: 8.6%
